From paper PMC7137635, “Disrupting the LC3 Interaction Region (LIR) Binding of Selective Autophagy Receptors Sensitizes AML Cell Lines to Cytarabine” (Frontiers in Cell and Developmental Biology, 2020)
Non-standard residues stand in square brackets, D forms with d. No end group written: not given here. *: point of attachment. Biotin = O=C1N[C@H]2[C@H](CS[C@H]2CCCCC(=O)*)N1; pS = N[C@@H](COP(=O)(O)O)C(=O)O

B1: p62 LIR peptide (332-346), biotinylated (peptide)
peptide: Biotin-SGGDDDWTHLSSKEV
notes: human p62/SQSTM1 LIR peptide, residues 332-346; also called p62 (332–346); source: synthetic peptide (GenScript, over 75% purity)
B2: OPTN LIR peptide (172-186), biotinylated (peptide)
peptide: Biotin-GSSEDSFVEIRMAEG
notes: human optineurin (OPTN) LIR peptide, residues 172-186; also called OPTN (172–186); OPTN peptide; source: synthetic peptide (GenScript, over 75% purity)
B3: pS177 OPTN LIR peptide (172-186), biotinylated (peptide)
peptide: Biotin-GSSED[pS]FVEIRMAEG
notes: also called pS177 OPTN (172–186); pS177 OPTN peptide; source: synthetic peptide (GenScript, over 75% purity)

What was measured:
[1] = target: HIS-tagged GATE-16wt (aa 1-115) (human, UniProt P60520 1-115); assay: BLI; Octet RED96; N-terminally biotinylated peptides on streptavidin biosensors, quenched with biocytin; HIS-tagged LC3B/GATE-16 proteins as analyte, 6.8 nM to 5 μM (LC3Bwt on NDP52 peptide: 312.5 nM to 20 μM); DPBS with 150 mM NaCl, 1% BSA, 0.02% Tween 20; 1:1 global fit; settings: both partners purified
Chain of HIS-tagged GATE-16wt (aa 1-115) (P60520 1-115): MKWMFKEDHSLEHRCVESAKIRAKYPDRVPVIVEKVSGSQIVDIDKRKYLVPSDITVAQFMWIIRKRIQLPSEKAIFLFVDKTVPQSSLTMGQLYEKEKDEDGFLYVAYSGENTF

[2] = target: HIS-tagged LC3Bwt (aa 1-119) (human, UniProt Q9GZQ8 1-119); assay: as above; settings: both partners purified

Binder	binding result [1]	Kd [2] [µM]
B1	binds	
B2		8.4
B3		0.8 ± 0.048
